Experimental data reported in patent US20130344125A1, “DRUG DELIVERY DEVICE” (priority 2010, published 2013).
Where no end group is shown, it is not given here.

Assay: Particle size and size distribution of nano-lipobubbles by dynamic light scattering (Zetasizer NanoZS)
Format: physicochemical
Conditions: 25° C., deionized water, extruded through 0.22 μm filter
Procedure: Particle size and size distribution of synthetic peptide ligands, non-targeted nano-lipobubbles and targeted nano-lipobubbles were analyzed by a Zetasizer NanoZS instrument (Malvern Instruments (Pty) Ltd., Worcestershire, UK) at 25° C. Samples were suspended in deionized water, and then extruded through a 0.22 μm pore size polycarbonate membrane filter prior to analysis. Each analysis was performed in triplicate.
The physicochemical properties of the targeted nano-lipobubbles in terms of size distribution and zeta-potential were examined using the standard method of dynamic light scattering measurement (Zetasizer NanoZS, Malvern Instrument). […] The diameter of synthetic peptide ligand (KVLFLS 9 SEQ ID NO: 2)) alone was in the range of 366±41 nm. When 1 mol % of the linear synthetic peptide ligand incorporated or coupled with circular non-targeted nano-lipobubbles to generate targeted nano-lipobubbles, the size distribution increased from 129 nm to 270 nm when it was compared with non-targeted nano-lipobubbles. This confirms the successfully incorporation of the synthetic peptide ligand on the surface of non-targeted nano-lipobubbles. The overall zeta potential or surface charge of the targeted nano-lipobubbles was −29 mV.

## KVLFLS (KVLFLS-NH2) [Synthetic 6 amino acid peptide ligand from human apolipoprotein A-1 targeting the SEC receptor]
  diameter (size distribution): 366±41 nm
